Data as given in FireProtDB (doi:10.1006/jmbi.2001.5050).

B1: Cold shock protein CspB, P41016 (parent)
chain: MQRGKVKWFNNEKGYGFIEVEGGSDVFVHFTAIQGEGFKTLEEGQEVSFEIVQGNRGPQAANVVKL

Variants of: B1
Conditions: Bacillus caldolyticus, pH 7, CD, sodium cacodylate-HCl 100 mM, reversible: yes, structure 1C9O, whole UniProt chain shown

Variant	ddG of mutation (higher = less stable) (25 °C, GdnHCl) [kJ/mol]	denaturant m value (25 °C, GdnHCl) [kcal/mol/M]	denaturant midpoint (higher = more stable) (25 °C, GdnHCl) [M]	unfolding free energy (25 °C, GdnHCl) [kJ/mol]	ddG of mutation (higher = less stable) (70 °C, Thermal, NaCl 2 M) [kJ/mol]	unfolding free energy (70 °C, Thermal, NaCl 2 M) [kJ/mol]	ddG of mutation (higher = less stable) (70 °C, Thermal) [kJ/mol]	unfolding free energy (70 °C, Thermal) [kJ/mol]	Tm (Thermal) [°C]	change of melting temperature, mutant - wild type (higher = more stable) (Thermal) [°C]	unfolding enthalpy (van 't Hoff) (Thermal) [kJ/mol]
V64T	1.3	1.79	2.5	3.68	0.795	8.41	1.09	3.39	75.1	-1.8	244
G23Q S24D	-0.293	1.67	2.75	5.31	0.418	8.79	0.502	4.02	75.9	-1	249
T31S					-0.795	10	-0.711	5.19	77.8	0.9	250
R3K					0.586	8.62	0.795	3.68	76.1	-0.8	224
R3A					4.39	4.81			64.9	-12	215
R3E	3.51	1.6	2.23	1.51	4.18	5.02					
R3L					0.92	8.28	3.89	0.586	70.9	-6	233
R3E L66E									44.6	-32.3	154
E46A	-0.418		2.77	5.4	0.502	8.7	0.92	3.6	75.4	-1.5	241
R3E E46A L66E									50.3	-26.6	169
R3E E46A	1.8	1.63	2.47	3.18	4.02	5.19			64.6	-12.3	221
N11S	0	1.74	2.69	5.02	-0.92	10.1	-1.38	5.9	79.2	2.3	246
R3E E21A					4.6	4.6			60	-16.9	206
Q2L	-1.72	1.7	2.95	6.69	-1.21	10.4	-2.3	6.82	80.9	4	242
L66E	3.51	1.74	2.21	1.51	5.31	3.89			68.9	-8	210
L66A					0.293	8.91					
E21A					1.21	7.99	1.21	3.31	75	-1.9	242
E46A L66A					0.92	8.28	1.21	3.31	75	-1.9	238
E46A L66E	3.51	1.84	2.2	1.51	5.82	3.39			68	-8.9	217
S24D	-0.418	1.65	2.79	5.4	-0.795	10	-0.92	5.4	77.8	0.9	258
Y15F	0.418	1.6	2.69	4.6	-0.293	9.5	0.209	4.31	76.7	-0.2	237
Q53E	-0.0837	1.82	2.68	5.1	0	9.2	0.418	4.1	76.1	-0.8	246
G23Q	0	1.89	2.62	5.02	1.3	7.91	1.21	3.31	74.7	-2.2	249
